Assay results published in US20160222124A1 (published 2016).

Experiments:
human CD40 (cellular) = human CD40 (cellular) (human, UniProt P25942 21-277); assay: cell-based or functional assay
cynomolgus monkey CD40 = biological target: T1, cynomolgus monkey CD40 (cynomolgus monkey, UniProt G7PG38 21-278); assay: ratio of binding EC50 human/cyno; ratio > 1 means increased binding to Cyno compared to Human
T1 construct: whole, on cells; also called Cyno CD40; CD40 on cynomolgus B cells and platelets

Chain of human CD40 (cellular) (P25942 21-277): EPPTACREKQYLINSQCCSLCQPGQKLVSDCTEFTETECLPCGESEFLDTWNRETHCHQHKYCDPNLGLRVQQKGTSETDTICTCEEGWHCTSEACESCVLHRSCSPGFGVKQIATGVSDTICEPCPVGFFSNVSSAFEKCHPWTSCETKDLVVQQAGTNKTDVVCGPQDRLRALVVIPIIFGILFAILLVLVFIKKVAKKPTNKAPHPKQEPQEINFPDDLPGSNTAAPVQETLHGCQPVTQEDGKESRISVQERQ

B1: Antibody C (antibody, V domains shown)
VH: QVQLVQSGAEVKKPGASVKVSCTASGFNIKDYYVHWVKQAPGQGLEWMGRIDPEDGDSKYAPKFQGKATMTADTSTSTVYMELSSLRSEDTAVYYCTTSYYVGTYGYWGQGTLVTVSS
VL: DIQMTQSPSSLSASVGDRVTITCSASSSVSYMLWFQQKPGKAPKLLIYSTSNLASGVPSRFSGSGSGTDFTLTISSLQPEDFATYYCQQRTFYPYTFGGGTKVEIKR
notes: also called 2H11-159-94
B cell proliferation: Agonism (SI*) (human CD40 (cellular)): < 2 SI | Species cross-react.: Hu/Cyno Binding (EC50 ratios) (cynomolgus monkey CD40): 1

B2: 4D11 (Kirin/Astellas) anti-CD40 antibody (antibody, V domains shown)
VH: QLQLQESGPGLLKPSETLSLTCTVSGGSISSPGYYGGWIRQPPGKGLEWIGSIYKSGSTYHNPSLKSRVTISVDTSKNQFSLKLSSVTAADTAVYYCTRPVVRYFGWFDPWGQGTLVTVSS
VL: AIQLTQSPSSLSASVGDRVTITCRASQGISSALAWYQQKPGKAPKLLIYDASNLESGVPSRFSGSGSGTDFTLTISSLQPEDFATYYCQQFNSYPTFGQGTKVEIK
B cell proliferation: Agonism (SI*) (human CD40 (cellular)): < 2 SI

B3: Antibody A (antibody, human IgG1, kappa, L234A L235A, V domains shown)
VH: EVQLVESGGGLVKPGGSLRLSCAASGFTFSDYGMHWVRQAPGKGLEWVAYISSGNRIIYYADTVKGRFTISRDNAKNSLYLQMNSLRAEDTALYYCARQDGYRYAMDYWAQGTLVTVSS
VL: DIVMTQSPDSLAVSLGERATMSCKSSQSLLNSGNQKNYLTWHQQKPGQPPKLLIYWTSTRESGVPDRFSGSGSGTDFTLTISSLQAEDVAVYYCQNDYTYPLTFGGGTKVEIKR
notes: also called 20E2-12
B cell proliferation: Agonism (SI*) (human CD40 (cellular)): < 2 SI | Species cross-react.: Hu/Cyno Binding (EC50 ratios) (cynomolgus monkey CD40): 3

B4: Antibody B (antibody, V domains shown)
VH: EVQLVESGGGLVKPGGSLRLSCAASGFTFSDYGMHWVRQAPGKGLEWVAYISSGNRIIYYADTVKGRFTISRDNAKNSLYLQMNSLRAEDTAVYYCARQDGYRYAMDYWGQGTLVTVSS
VL: DIVMTQSPDSLAVSLGEKVTINCKSSQSLLNSGNQKNYLTWHQQKPGQPPKLLIYWTSTRESGVPDRFSGSGSGTDFTLTISSLQAEDVAVYYCQNDYTYPLTFGGGTKVEIKR
notes: also called 10E2-1
B cell proliferation: Agonism (SI*) (human CD40 (cellular)): < 2 SI | Species cross-react.: Hu/Cyno Binding (EC50 ratios) (cynomolgus monkey CD40): 2
